Values quoted from earlier work as cited in patent US20250177452A1, “USE OF IMMUNOSUPPRESSION TO ENABLE ENGRAFTMENT OF HEMATOPOIETIC STEM CELLS” (The Board of Trustees of the Leland Stanford Junior …, priority 2022, published 2025).

How the values were obtained:
[1] = biological target: T1, CD52 (Homo sapiens, UniProt P31358); conditions: single injection
T1 construct: CD52 is expressed on 95% of peripheral blood lymphocytes, monocytes and thymocytes; host or cells: endogenous CD52 on peripheral blood lymphocytes in vivo

[2] = in vivo

Molecule | depletion of lymphocytes [1] | maximum tolerated dose (MTD) [2]
Alemtuzumab: recombinant humanized monoclonal antibody against CD52 | over 99% | 
IMGN901: CD56-targeting antibody-drug conjugate delivering the cytotoxic maytansinoid DM1 (conjugate, chains of the INN, looked up, DM1 maytansinoid payload, CD56-targeting antibody-drug conjugate delivering the cytotoxic maytansinoid DM1) VH: QVQLVESGGGVVQPGRSLRLSCAASGFTFSSFGMHWVRQAPGKGLEWVAYISSGSFTIYYADSVKGRFTISRDNSKNTLYLQMNSLRAEDTAVYYCARMRKGYAMDYWGQGTLVTVSS VL: DVVMTQSPLSLPVTLGQPASISCRSSQIIIHSDGNTYLEWFQQRPGQSPRRLIYKVSNRFSGVPDRFSGSGSGTDFTLKISRVEAEDVGVYYCFQGSHVPHTFGQGTKVEIK |  | about 75 mg/m^2
